This data set deals with Rrp5_C8;Rok1 (Saccharomyces cerevisiae;Saccharomyces cerevisiae). Nature of the data set: glycerol gradient sedimentation. Conditions: EMSA: 200 mM KCl, 10 mM MgCl2, 40 mM HEPES/KOH pH 7.5, 10 mM Mg-AMPPCP or 1 mM Mg-ADP, 12 min 25 C, native gel 4 C. 40S binding: 200 mM KOAc, 20 mM HEPES/KOH …. On the technique in general: In EMSA bound probe runs differently from free probe, usually more slowly.

Take mature 40S ribosomal subunit (18S rRNA): the binding signal was found to be 2 % Rrp5 bound (400 uM ADP, 98% of Rrp5 free) and 15 % Rrp5 bound (4 mM AMPPCP).

These data come from publication PMC4900678.
